The values below come from publication PMC6358098.

Usually stoichiometry N stands for the number of molecules, sites or subunits per partner or assembly.

In this experiment the target is recombinant protruding (P) domain of Macrobrachium rosenbergii nodavirus capsid protein (MrNV-CP) (Macrobrachium rosenbergii nodavirus). In words: SEC; HiPrep 16/60 Sephacryl S-200 HR, Tris-HCl buffer (20 mM Tris-HCl, 100 mM NaCl, pH 7.6); elution profile overlaid with those of standard protein markers. Background: SEC sorts molecules by how far they enter the pores of the column.

On to “recombinant protruding (P) domain of Macrobrachium rosenbergii nodavirus capsid protein (MrNV-CP) (domain or fragment)”, for which the stoichiometry N came out at 2.
